± gives the uncertainty stated by the source.
Experiment: protein stability index of a GFP-peptide fusion (yeast GPS) (PSI 1-4); higher = more stable; sorted into four equal gates, so the index is relative within each strain
Summary of the method: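 For each peptide, the protein stability index sums the read frequency in every gate after multiplying it by the gate number. Read frequencies came from plasmids that were PCR-amplified from each gate and Illumina-sequenced, with reads assigned to strains by barcodes. The gates were four equal bins of GFP/Cherry fluorescence ratio applied to mid-log yeast in leucine-free medium carrying a pooled library of tiled 17-residue yeast protein peptides fused downstream of GFP on a Cherry-expressing plasmid.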

## LECQLFPQGLNIVMDSK [SSN8]
doa10∆
  protein stability index: 1.74 ± 0.2
ubr1∆
  protein stability index: 2.46 ± 0.19

## LEDDSLLSYPIKLDRWL [RPN12]
doa10∆
  protein stability index: 3.12 ± 0.072
pdr5∆
  protein stability index: 2.87 ± 0.057
san1∆
  protein stability index: 2.99 ± 0.072
ubr1∆
  protein stability index: 2.78 ± 0.063

## LEDFENFKGLAKEKERM [YIL149C/MLP2]
doa10∆
  protein stability index: 3.41 ± 0.075
pdr5∆
  protein stability index: 3.51 ± 0.085
san1∆
  protein stability index: 3.42 ± 0.054
ubr1∆
  protein stability index: 3.35 ± 0.083

## LEDLFSYRNGMASYMLN [YJR042W/NUP85]
doa10∆
  protein stability index: 1.6 ± 0.071
pdr5∆
  protein stability index: 1.25 ± 0.15
san1∆
  protein stability index: 1.89 ± 0.13
ubr1∆
  protein stability index: 2.42 ± 0.11

## LEEEFVSNSEILKPFEK [RPT2]
doa10∆
  protein stability index: 2.85 ± 0.074
pdr5∆
  protein stability index: 2.88 ± 0.054
san1∆
  protein stability index: 3.05 ± 0.073
ubr1∆
  protein stability index: 2.51 ± 0.14

## LEEKILAKKTHKQELQD [SMC4]
doa10∆
  protein stability index: 2.95 ± 0.093
pdr5∆
  protein stability index: 3.21 ± 0.074
san1∆
  protein stability index: 2.88 ± 0.072
ubr1∆
  protein stability index: 2.85 ± 0.073

## LEEQQQLEDESSRLEFV [YML103C/NUP188]
doa10∆
  protein stability index: 3.43 ± 0.084
pdr5∆
  protein stability index: 3.3 ± 0.086
san1∆
  protein stability index: 3.39 ± 0.06
ubr1∆
  protein stability index: 3.46 ± 0.08

## LEGETDPLRIAMKELAE [RPO26]
doa10∆
  protein stability index: 3.49 ± 0.21
pdr5∆
  protein stability index: 3.34 ± 0.057
san1∆
  protein stability index: 3.27 ± 0.1
ubr1∆
  protein stability index: 3.36 ± 0.15

## LEGITTTIDSLNAELES [SMC3]
doa10∆
  protein stability index: 1.57 ± 0.088
pdr5∆
  protein stability index: 1.77 ± 0.15
san1∆
  protein stability index: 2.27 ± 0.17
ubr1∆
  protein stability index: 3.14 ± 0.1

## LEHDVEYRPFSKKVLEC [DIS3]
doa10∆
  protein stability index: 3.4 ± 0.18
pdr5∆
  protein stability index: 3.6 ± 0.1
san1∆
  protein stability index: 3.48 ± 0.07
ubr1∆
  protein stability index: 3.37 ± 0.073

## LEIAKDFQPTELFDILS [IRR1]
doa10∆
  protein stability index: 3.07 ± 0.13
pdr5∆
  protein stability index: 2.33 ± 0.11
san1∆
  protein stability index: 2.8 ± 0.079
ubr1∆
  protein stability index: 3.08 ± 0.086

## LEIASSIDCLLILILVI [SWI1]
doa10∆
  protein stability index: 1.98 ± 0.07
pdr5∆
  protein stability index: 2.24 ± 0.046
san1∆
  protein stability index: 2.34 ± 0.074
ubr1∆
  protein stability index: 1.71 ± 0.035

## LEKIHSIEVQSLPEFFT [SWI3]
doa10∆
  protein stability index: 2.69 ± 0.074
pdr5∆
  protein stability index: 2.53 ± 0.073
san1∆
  protein stability index: 2.43 ± 0.12
ubr1∆
  protein stability index: 2.52 ± 0.069

## LEKKGFSEVYEYNRLKV [LIN1]
doa10∆
  protein stability index: 3.34 ± 0.16
pdr5∆
  protein stability index: 3.18 ± 0.25
san1∆
  protein stability index: 3.28 ± 0.1
ubr1∆
  protein stability index: 3.22 ± 0.12

## LERFNKRADISKRRITE [SMC1]
doa10∆
  protein stability index: 3.14 ± 0.14
pdr5∆
  protein stability index: 2.7 ± 0.074
san1∆
  protein stability index: 2.96 ± 0.17
ubr1∆
  protein stability index: 2.99 ± 0.13

## LESFQAVYNKLTGKQIV [RPS7A]
doa10∆
  protein stability index: 1.68 ± 0.055
pdr5∆
  protein stability index: 1.32 ± 0.044
san1∆
  protein stability index: 1.28 ± 0.098
ubr1∆
  protein stability index: 1.53 ± 0.052

## LESSITDAGVLALKLEL [YJL039C/NUP192]
doa10∆
  protein stability index: 1.57 ± 0.06
pdr5∆
  protein stability index: 1.48 ± 0.061
san1∆
  protein stability index: 1.3 ± 0.13
ubr1∆
  protein stability index: 1.57 ± 0.085

## LETILEEFRNLAALNVW [SSN2]
doa10∆
  protein stability index: 2.9 ± 0.11
pdr5∆
  protein stability index: 2.98 ± 0.1
san1∆
  protein stability index: 2.52 ± 0.11
ubr1∆
  protein stability index: 3.32 ± 0.057

## LETLFNRWHSESWANQL [FAS2]
doa10∆
  protein stability index: 2.81 ± 0.055
pdr5∆
  protein stability index: 2.89 ± 0.076
san1∆
  protein stability index: 2.87 ± 0.055
ubr1∆
  protein stability index: 3.02 ± 0.056

## LFGNNNTNNINNSSSGM [YGL172W/NUP49]
doa10∆
  protein stability index: 3.38 ± 0.16
pdr5∆
  protein stability index: 3.42 ± 0.14
san1∆
  protein stability index: 3 ± 0.12
ubr1∆
  protein stability index: 3.13 ± 0.13

## LFHSCTRIQYVDFACCT [GRR1]
doa10∆
  protein stability index: 2.56 ± 0.12
pdr5∆
  protein stability index: 2.44 ± 0.067
san1∆
  protein stability index: 2.2 ± 0.075
ubr1∆
  protein stability index: 2.21 ± 0.063

## LFKTLFKKLTKDIFRYM [RPB2]
doa10∆
  protein stability index: 1.94 ± 0.061
pdr5∆
  protein stability index: 1.53 ± 0.059
san1∆
  protein stability index: 1.33 ± 0.13
ubr1∆
  protein stability index: 1.66 ± 0.055

## LFNESFIMASVGKYDKA [SRP72]
doa10∆
  protein stability index: 3 ± 0.29
pdr5∆
  protein stability index: 2.85 ± 0.27

## LFRAIYLYCLDNNITEM [YCG1]
doa10∆
  protein stability index: 2.08 ± 0.052
pdr5∆
  protein stability index: 2.09 ± 0.044
san1∆
  protein stability index: 2.1 ± 0.061
ubr1∆
  protein stability index: 2.38 ± 0.05

## LFYFDSSFRPCPLSQQF [BRR2]
doa10∆
  protein stability index: 2.47 ± 0.072
pdr5∆
  protein stability index: 1.89 ± 0.051
san1∆
  protein stability index: 2.68 ± 0.061
ubr1∆
  protein stability index: 2.41 ± 0.033

## LGDKELWPVAIGLIALS [YJR042W/NUP85]
doa10∆
  protein stability index: 1.57 ± 0.17
pdr5∆
  protein stability index: 1.65 ± 0.15
san1∆
  protein stability index: 1.64 ± 0.27
ubr1∆
  protein stability index: 1.73 ± 0.16

Reference: the supplement of paper PMC9732359
